This is an account of results in the DeepSol protein solubility set.

A short description of the data set: soluble on expression in E. coli; label from the status in PepcDB or PDB records.
For “MVQTYRSPVRIYKHPFEIVMAAYEMRFPTCPQIPIFVGSEVTYEYKSVDGAEWVIDRKCQLNVEAPYLVKKIAGVDYVYFSQKNSLDRRKRTLDIEATNISFSSRINVKENCTYYVHAENENWTCFEQSASLDVKNFFGLESAVEKLAVRQYGANLAKGKEILEFFIEELLKKTTHIERFRDADQEETTSATDSAIEMKELSDGDAVLVNDRPPMLAAETDEMRTARATASFDDACRVCMIIYCRIFIIISSYFFNFPADSKLEAEYIRRFLGQLSPLEESRLCEIKYSLQAHHKGKLPNDAHLLRFLRARDFDVAKAKDMVHASIIWRKQHNVDKILEEWTRPTVIKQYFPGCWHNSDKAGRPMYILRFGQLDTKGMLRSCGVENLVKLTLSICEDGLQRAAEATRKLGTPISSWSLVVDLDGLSMRHLWRPGVQCLLKIIEIVEANYPETMGQVLVVRAPRVFPVLWTLISPFIDEKTRKKFMVSGGSGGDLKEELRKHIEEKFIPDFLGGSCLTTNCGLGGHVPKSMYLPVEEQEGASSSEDPLHSTYTSTATWRGYPVEVVIPIETAGCVLTWDFDVLKNDCEFSLYFSTEKIEQPAVRDGAQSPTTILNPVEMVSAAIGGASHQHPDLQCAPELKIGTPQLRLEEKAVVFQEGDSMQGSHYCSRAGTYIMQWRVPETAAGHSSTFDFGSHKCRLIYYYEILNSENFRGSVASLESCRSSSFSSIAPPTPPTPGTPRNP”, the “soluble on expression in E. coli” value is on record as “not soluble”.

In the case of “MVRANKRNEALRIESALLNKIAMLGTEKTAEAVGVDKSQISRWKRDWIPKFSMLLAVLEWGVVDDDMARLARQVAAILTNKKRPAATERSEQIQMEF”, the “soluble on expression in E. coli” value was “soluble”.

“MVRFFIGKEMLFDSHLHLDQLSDENIQQTLAHSKIIGMLAVSTNLNSAKKLLNLKQTYPKKLYIAAGFHPEQQLPSLEEQKKLFQWIDEHHSSISAIGEVGLPHYSKRENPNLDYVPYIELLERFILIAKKWDLPLNLHIVHNDVEIALELLQKHNIQRAHFHWFKTDEKSFQKFFSTPYFASLTPDILWNSKTQYVAQHLSLNRLMIETDSPWQHEGFERAGISEQLLAVLQKLAELKSLPLHSVQKQILLNTQQFYRLLEHHHHHH”: the “soluble on expression in E. coli” value is recorded as “not soluble”.

Consider “MVRILPIILSALSSKLVASTILHSSIHSVPSGGEIISAEDLKELEISGNSICVDNRCYPKIFEPRHDWQPILPGQELPGGLDIRINMDTGLKEAKLNDEKNVGDNGSHELIVSSEDMKASPGDYEFSSDFKEMRNIIDSNPTLSSQDIARLEDSFDRIMEFAHDYKHGYKIITHEFALLANLSLNENLPLTLRELSTRVITSCLRNNPPVVEFINESFPNFKSKIMAALSNLNDSNHRSSNILIKRYLSILNELPVTSEDLPIYSTVVLQNVYERNNKDKQLQIKVLELISKILKADMYENDDTNLILFKRNAENWSSNLQEWANEFQEMVQNKSIDELHTRTFFDTLYNLKKIFKSDITINKGFLNWLAQQCKARQSNLDNGLQERDTEQDSFDKKLIDSRHLIFGNPMAHRIKNFRDEL”, for which the “soluble on expression in E. coli” value is given as “soluble”.

As to “MVRKGCNSLVRAEKILTHIAWVGMASYMELLNKFQYPKSSLLNLLNVMVDCGFLIKNKNGYYSLGIKNYELGCQALHRQNIFEVTKRPMQELSLKSGLVCHLGAMESISAIYLDKIESPDSVPTSKSWIGKKLELHITALGKALLAWKTREELDYFLEALTLTPHTRNTFTDKKLFLEELQKTRLRGWAIDNEESTYGAVCLSMPVFNMYNRVNYAISLSGDPVVYSGNKIDSYLELLRKCAEQISYGLGYRNENEHLRKGN”, the “soluble on expression in E. coli” value is recorded as “soluble”.

“MVRKVLIIGGGFSGMAAAIQMRKAGIDVDLVEIDPNWRPEGAGITVNGPTLRALETIGVFDEFARRGFTSSGVDLFTPTGQKIGEIPTPKVAGSDVPGGGGIMRPELGRILADATRGSDVSVRVGCTYTAIEQTGDQVTVAFTDGTTDTYDLVVAADGVHSKTRERFFPEVKPPQYIGQGVWRTVLPRPAEIVRPRMWLGGTVKVGVNPVSQTHLYMFITEARPEKTNLDPATFPDLVTSMLKSFPDPIVQSLIPHVFAAEAAIDYRPLANLLVPAPWNRGRVILIGDTVAATTPHLASGAGIGIESGIILAEELAKAATLQDAFDGFHARRWERCRMVIENSERLCRIEMENGDKAEHARIMRESVMALTQPILEHHHHHH”: the “soluble on expression in E. coli” value is “soluble”.

For “MVRNLVIDITKKPTQNIPPTNEIIEEAITELNVDELLDRLFEKDESGEVITPSRIAKMLEEKAFEIYKEYEKQVREAYLSAGYSREKLEQSFQQARFSRGGKAFEIIFTKLLNKFGIRYEHDRVIKIYDYITEGEKPAFIIPSVRTFLNDPSSAILITVKRKVRERWREAVGEAQILRNKFGDEINFWFVGFDEEFTIYSAIAMLDNGIDRVYVIDGRYDSLIEEIKRISDPNFNEDKYIQKIRRFSDIFDDIIQFLNKHGNKKRGKQLTLV”, the “soluble on expression in E. coli” value is given as “soluble”.

For “MVRPPPFEFRPARPPGTRALQLEVITNIIWENAPMADLDALRSRFAHALAGATAPGATAGAGPGSGPDPAPYADNLLARWQEPQRRYHTLAHLTAVLDRVDVLAEHADDVAVVRLAAWFHDAVYQPDRSENEERSARLAERALPEAGVPAAKTAEVARLVRLTVTHAPAGDDRDGQVLCDADLAVLASPPSAYAAYTAAVREEYHFVPNEAFREGRAAILRQLLDLPSLFHTPYGRQEWEATARHNLTGELEMLSLPDTPDVLEHHHHHH”, the “soluble on expression in E. coli” value is “not soluble”.

As to “MVRTINLYYNNRTVQAIVELKNKPARWHKAKKVQLTPGQTEVKIDLPLPIVASNLMIEFADFYENYQASTETLQCPRCSASVPANPGVCGNCGENVYQCHKCRSINYDEKDPFLCNACGFCKYARFDFMLYAKPCCAVDPIENEEDRKKAVSNINTLLDKADRVYHQLMGHRPQLENLLCKVNEAAPEKPQVVPRCKGHLDKGLGLDQKTAS”, the “soluble on expression in E. coli” value was “not soluble”.

Take “MVRTITVASGKGGTGKTTITANLGVALAQLGHDVTIVDADITMANLELILGMEGLPVTLQNVLAGEARIDEAIYVGPGGVKVVPAGVSLEGLRKANPEKLEDVLTQIMESTDILLLDAPAGLERSAVIAIAAAQELLLVVNPEISSITDGLKTKIVAERLGTKVLGVVVNRITTLGIEMAKNEIEAILEAKVIGLIPEDPEVRRAAAYGKPVVLRSPNSPAARAIVELANYIAGGAKKKVPAEVKEKKKEGALAKMLRIFRRR”: the “soluble on expression in E. coli” value is listed as “soluble”.

As to “MVRVVRHSRGTCNRGLYEVRELARNRTLQQWGVEDSAELYGIRNWGAGYFDVAQNGDVVVYPFGHNRGPAVSIPEIIGGMRERGYDMPVLLRIENILDSQITSLHTSFRNAIGSLGYKGEYRGIFPIKVNQQQQVVEKIAQFGSHYHHGLEVGSKAELIAAVSQLRDREACLVCNGYKDEEFIDLGLHAVRLGFMCIFVLEMPGELDLILERGEALGVKPIIGVRAKLSVKAGGHWTDSGGERSTFGLTTSQIVDVVDRLKEKGMLDCFKLLHYHLGSQVPNIRDIRAAVMEACRIYAGLVQEGAAMGFLDLGGGLAVDYDGSHTNFVSSRNYTLDEYCADIVEAVMTTLDEQNIPHPHIVTESGRATVAYYSMLLFNILDVSRVEIGNLPDALPEDTPEPVRNMREVLAGMTLRNLQECYNDALYYRDAVRQLFLTGQVTLRQRTLSERLFWAIMKRIAQEKQKLKHVPKDLAEIDVALADIYYGNFSVFQSLPDSWAIDQLFPVMPVHRLQELPSRQGILSDITCDSDGRIDHFIDPQGMKGTLDLHPLRDGEEYYLGVFLVGAYQETLGDLHNLLGDTNVVSVRVHEDGTYEFVREIRGDSVADILSYVEYDPRRIYEDIRELAERAVREGRITASDRFRVMQAYEDGLRGYTYFERLEHHHHHH”, the “soluble on expression in E. coli” value was “not soluble”.

“MVSLSDLASYPICRRCAGRIFAMVGTGLTNLERGSMLEFSIKCEKNDPEFNFADPQNCEICHGIFDKFSVFLSLVEDKLKEIEYSTFVVGSVFPKEWIELENKIQEAFGAHGESIKKEFNREFGKYITAKTGKEYRKEDPDITIAVNVEYEFVNVSIKSLFIYGKYRKYRRDMPQTRWIHKKDGDSIESIIGEAALRIAGGKNYYLHGSGREDVDVRMLGNGREFVIEVEAPIMRTFDLSILSETVNRSMKGVEIFDLSFVDRKTVKEIKEEKHSKVYDCIIEGDTDIDKLKLEEACTEMNGKNIYQRTPLRVAQRRSDLIRTRKIERMELVAVEGKEAEIVVQAEAGTYIKELISGDSGRTNPSLSSKYGSQLNVKELDVIKICRGELEHHHHHH”: the “soluble on expression in E. coli” value is given as “not soluble”.

Regarding “MVSMLLVGRIGKSVGLNGGLRLHLESDFPECLKKGVKVSVAPLNAFSCVSSFKEYIIHSYEHAKNLLFLETIQTPEKAKELTNLGLFMSEAESKKLCVLKEGEFFYCDLVGLSVVEENEILGKVIEIQRISQTDYFLVETTLNLVEKGLAKIFLIPYRDFYIQEILLQDKKITTHNAKTLLENSLEHHHHHH”, the “soluble on expression in E. coli” value is reported as “soluble”.

Regarding “MVSPLKTRCCSPSSQQQASEAREIEQPSTVWELDFYSRPVYGKDNKRIWELIVVDESFLLCHVESVPNDMINSAELRKRVERLLEQVTVKPKVVKFSRMPMFNMISLALKDLGFEVKPSRRTYRLYHVLRDREANIYSKMPGYRSENTLSTSYLYSTERLPDALRGEKFAFCTADYSFLYELQSSDTIPYCDIFNTGDSILLEKELPGIIVYSERADSLASWTAGAEVSFIKFREEELELVLECGINSHYRLAKIAEDHRLVEEAKTFEQMKWHMKGFHFYAIQSLKETSGTSHIKGLWLLNDFMEQ”, the “soluble on expression in E. coli” value is “not soluble”.

Turning to “MVSVNENALPLVERMIERAELLNVEVQELENGTTVIDCGVEAAGGFEAGLLFSEVCMGGLATVELTEFEHDGLCLPAVQVTTDHPAVSTLAAQKAGWQVQVGDYFAMGSGPARALALKPKETYEEIDYEDDADVAILCLESSELPDEDVAEHVADECGVDPENLYLLVAPTASIVGSVQVSARVVETGLYKLLEVLEYDVTRVKYATGTAPIAPVADDDGEAMGRTNDCILYGGTVYLYVEGDDELPEVVEELPSEASEDYGKPFMKIFEEADYDFYKIDPGVFAPARVVVNDLSTGKTYTAGEINVDVLKESFSL”, the “soluble on expression in E. coli” value is on record as “soluble”.

On to “MVTPREPKKRTTRKKKDPNAPKRALSAYMFFANENRDIVRSENPDITFGQVGKKLGEKWKALTPEEKQPYEAKAQADKKRYESEKELYNATLA”, for which the “soluble on expression in E. coli” value is “soluble”.

For “MVTVPEGYEANVIYALGDSINPRVGDWDDNNIPSGPSFQFRSGDCHDGMHYFGLNTSTNRFDETVSAQGLLVMNHEYINQTFLHPKGPTKVDGRRPEDEVIRETNAHGVSVVHIKKDPTTQKVEIVKNSIFNRRITASTVMEFAGAAAGSSLLATRFSPAGRQTRGTHNNCGNGYTPWGTYLTTEENFIGYFQRSGSDEYARTDAEKIALKRYGLGVKKDEPYLYEKDEKGAPKKDKDGKIIYLKDKNGELIPNVDEQGRQIYLGTSSRYGWETAIGQVESQDLYDRWNADVKAAQATQDYRNGPNTFGWMVEIDPFDGRQNPVKRTSLGRFAHEDSACRAVVGQPLAFYMGDDSRGEYIYKFVSTAVWDTKDINGGYTAGDKYMNAGKLYVAKFNNDGSGQWIELAYGKNGLNESNTTYPFKSQADVVTFARLAADSVGATKMDRPEWCTVNPVNGEIYVTLTNNSNRGKDYATDAANPRNYTDLYAGTKEQKGNVNGHIIRFKETDDKTTAETFKWDIYLFGAEASMASNINLSGLTDNNDFSSPDGMWFDPRGVLWIETDDGAYTDVTNCMMLAALPGQIGDGGTLEHHHHHH”, the “soluble on expression in E. coli” value is “soluble”.

On to “MVVFGTTFFNFDSFIGKTDSIEIIGKSVFPYCYHNILPLLNDSGRYSLGDARRPLHETAVLVEDVVHTQLINLLQQAAEVSQLRGARVITPEDLLFLMRKDKKKLRRLLKYMFIRDYKSKIVKGIDEDDLLEDKLSGSNNANKRQKIAQDFLNSIDQTGELLAMFEDDEIDEVKQERMERAERQTRIMDSAQYAEFCESRQLSFSKKASKFRDWLDCSSMEIKPNVVAMEILAYLAYETVAQLVDLALLVRQDMVTKAGDPFSHAISATFIQYHNSAESTAACGVEAHSDAIQPCHIREAIRRYSHRIGPLSPFTNAYRRNGMAFLAC”, for which the “soluble on expression in E. coli” value is reported as “not soluble”.
